Consider 33 molecules from patent US20210355194A1 (TWIST BIOSCIENCE, published 2021).

The chains are these.
B1: variant 6-49 (Fc fusion)
VHH: EVQLVESGGGLVQPGGSLRLSCAASGSTVLINAMGWFRQAPGKEREFVAAISWSPGRTDYADSVKGRFTISADNSKNTAYLQMNSLKPEDTAVYYCARDCSGGSCYSGDYWGQGTLVTVSS
B2: variant 6-33 (Fc fusion)
VHH: EVQLVESGGGLVQPGGSLRLSCAASGTFQRINHMGWFRQAPGKEREFVATINTGGQPNYADSVKGRFTISADNSKNTAYLQMNSLKPEDTAVYYCASLIAAQDYYFDYWGQGTLVTVSS
B3: variant 6-38 (Fc fusion)
VHH: EVQLVESGGGLVQPGGSLRLSCAASGNTFSGGFMGWFRQAPGKEREFVAVISSLSSKSYADSVKGRFTISADNSKNTAYLQMNSLKPEDTAVYYCAKVDSGYDYWGQGTLVTVSS
B4: variant 6-34 (Fc fusion)
VHH: EVQLVESGGGLVQPGGSLRLSCAASGSAFRSNAMGWFRQAPGKEREFVAHISWSSKSTYYADSVKGRFTISADNSKNTAYLQMNSLKPEDTAVYYCATYCSSTSCFDYWGQGTLVTVSS
B5: variant 6-36 (Fc fusion)
VHH: EVQLVESGGGLVQPGGSLRLSCAASGFDFSVSWMGWFRQAPGKEREFVTAITWSGDSTNYADSVKGRFTISADNSKNTAYLQMNSLKPEDTAVYYCASLLHTGPSGGNYFDYWGQGTLVTVSS
B6: variant 6-67 (Fc fusion)
VHH: EVQLVESGGGLVQPGGSLRLSCAASGSFSNYAMGWFRQAPGKEREFVAAISSSGALTSYADSVKGRFTISADNSKNTAYLQMNSLKPEDTAVYYCWIVGPGPLDGMDVWGQGTLVTVSS
B7: variant 6-46 (Fc fusion)
VHH: EVQLVESGGGLVQPGGSLRLSCAASGLTFSAMGWFRQAPGKEREFVALIRRDGSTIYADSVKGRFTISADNSKNTAYLQMNSLKPEDTAVYYCAALGILFGYDAFDIWGQGTLVTVSS
B8: variant 6-43 (Fc fusion)
VHH: EVQLVESGGGLVQPGGSLRLSCAASGRTFSSYAMMGWFRQAPGKEREFVASVNWDASQINYADSVKGRFTISADNSKNTAYLQMNSLKPEDTAVYYCTTLGAVYFDSSGYHDYFDYWGQGTLVTVSS
B9: variant 6-45 (Fc fusion)
VHH: EVQLVESGGGLVQPGGSLRLSCAASGNMFSINAMGWFRQAPGKEREFVTLISWSSGRTSYADSVKGRFTISADNSKNTAYLQMNSLKPEDTAVYYCASLGYCSGGSCFDYWGQGTLVTVSS
B10: variant 6-63 (Fc fusion)
VHH: EVQLVESGGGLVQPGGSLRLSCAASGQTFNMGWFRQAPGKEREFVAAIGSGGSTSYADSVKGRFTISADNSKNTAYLQMNSLKPEDTAVYYCWRLGNDYFDYWGQGTLVTVSS
notes: VHH-Fc
B11: variant 6-39 (Fc fusion)
VHH: EVQLVESGGGLVQPGGSLRLSCAASGFTFSPSWMGWFRQAPGKEREFVAAISWSGGSTAYADSVKGRFTISADNSKNTAYLQMNSLKPEDTAVYYCHGLGEGDPYGDYEGYFDLWGQGTLVTVSS
B12: variant 6-40 (Fc fusion)
VHH: EVQLVESGGGLVQPGGSLRLSCAASGFTFSDYWMGWFRQAPGKERELVARVWWNGGSAYYADSVKGRFTISADNSKNTAYLQMNSLKPEDTAVYYCAREVLRQQVVLDYWGQGTLVTVSS
B13: variant 6-65 (Fc fusion)
VHH: EVQLVESGGGLVQPGGSLRLSCAASGLPFSTLHMGWFRQAPGKEREFVASLSIFGATGYADSVKGRFTISADNSKNTAYLQMNSLKPEDTAVYYCWMYYYDSSGYYGNYYYGMDVWGQGTLVTVSS
B14: variant 6-32 (Fc fusion)
VHH: EVQLVESGGGLVQPGGSLRLSCAASGFTLDYYDMGWFRQAPGKEREFVALISWSGGSTYYADSVKGRFTISADNSKNTAYLQMNSLKPEDTAVYYCATDFYGWGTRERDAFDIWGQGTLVTVSS
B15: variant 6-25 (Fc fusion)
VHH: EVQLVESGGGLVQPGGSLRLSCAASGLTFGTYTMGWFRQAPGKEREFVAAISRFGSTYYADSVKGRFTISADNSKNTAYLQMNSLKPEDTAVYYCARGGDYDFWSVDYMDVWGQGTLVTVSS
B16: variant 6-41 (Fc fusion)
VHH: EVQLVESGGGLVQPGGSLRLSCAASGFTFSTSWMGWFRQAPGKEREFVASINEYGGRNYADSVKGRFTISADNSKNTAYLQMNSLKPEDTAVYYCAGLHYYYDSSGYNPTEYYGMDVWGQGTLVTVSS
B17: variant 6-54 (Fc fusion)
VHH: EVQLVESGGGLVQPGGSLRLSCAASGFEFENHWMGWFRQAPGKEREYVAHITAGGLSNYADSVKGRFTISADNSKNTAYLQMNSLKPEDTAVYYCGRHWGIYDSSGFSSFDYWGQGTLVTVSS
B18: variant 6-66 (Fc fusion)
VHH: EVQLVESGGGLVQPGGSLRLSCAASGLTFSLFAMGWFRQAPGKERELVAAISSGGSTDYADSVKGRFTISADNSKNTAYLQMNSLKPEDTAVYYCARGNTKYYYDSSGYSSAFDYWGQGTLVTVSS
B19: variant 6-62 (Fc fusion)
VHH: EVQLVESGGGLVQPGGSLRLSCAASGSTFSGNWMGWFRQAPGKEREFVAVISWTGGSTYYADSVKGRFTISADNSKNTAYLQMNSLKPEDTAVYYCATHNSLSGFDYWGQGTLVTVSS
B20: variant 6-31 (Fc fusion)
VHH: EVQLVESGGGLVQPGGSLRLSCAASGDTFSANRMGWFRQAPGKEREFVASITWSSANTYYADSVKGRFTISADNSKNTAYLQMNSLKPEDTAVYYCATFNWNDEGFDFWGQGTLVTVSS
B21: variant 6-37 (Fc fusion)
VHH: EVQLVESGGGLVQPGGSLRLSCAASGHTFSTSWMGWFRQAPGKEREFVATINSLGGTNYADSVKGRFTISADNSKNTAYLQMNSLKPEDTAVYYCARVSSGDYGMDVWGQGTLVTVSS
B22: variant 6-68 (Fc fusion)
VHH: EVQLVESGGGLVQPGGSLRLSCAASGFTLSDRAMGWFRQAPGKEREYVAHITAGGLSNYADSVKGRFTISADNSKNTAYLQMNSLKPEDTAVYYCVHLASQTGAGYFDLWGQGTLVTVSS
B23: variant 6-47 (Fc fusion)
VHH: EVQLVESGGGLVQPGGSLRLSCAASGRTFSMHAMGWFRQAPGKERELVASITYGGNINYADSVKGRFTISADNSKNTAYLQMNSLKPEDTAVYYCAKEGYYDSTGYRTYFQQWGQGTLVTVSS
B24: variant 6-44 (Fc fusion)
VHH: EVQLVESGGGLVQPGGSLRLSCAASGGTFGVYHMGWFRQAPGKEREFIGRITWTDGSTYYADSVKGRFTISADNSKNTAYLQMNSLKPEDTAVYYCFGLLEVYDMTFDYWGQGTLVTVSS
B25: variant 6-51 (Fc fusion)
VHH: EVQLVESGGGLVQPGGSLRLSCAASGYTYSSYVMGWFRQAPGKEREFVAAISRFGSTYYADSVKGRFTISADNSKNTAYLQMNSLKPEDTAVYYCARDSGEHFWDSGYIDHWGQGTLVTVSS
B26: variant 6-35 (Fc fusion)
VHH: EVQLVESGGGLVQPGGSLRLSCAASGFTLAYYAMGWFRQAPGKEREFVAAISMSGDDTIYADSVKGRFTISADNSKNTAYLQMNSLKPEDTAVYYCARELGYSSTVWPWGQGTLVTVSS
B27: variant 6-42 (Fc fusion)
VHH: EVQLVESGGGLVQPGGSLRLSCAASGDTYGSYWMGWFRQAPGKEREFVAVITSGGSTNYADSVKGRFTISADNSKNTAYLQMNSLKPEDTAVYYCTHVQNSYYYAMDVWGQGTLVTVSS
B28: variant 6-53 (Fc fusion)
VHH: EVQLVESGGGLVQPGGSLRLSCAASGISINTNVMGWFRQAPGKEREFVAAISTGSVTIYADSVKGRFTISADNSKNTAYLQMNSLKPEDTAVYYCARVDDFGYFDLWGQGTLVTVSS
B29: variant 6-23 (Fc fusion)
VHH: EVQLVESGGGLVQPGGSLRLSCAASGSIFSMNTMGWFRQAPGKEREFVALINRSGGGINYADSVKGRFTISADNSKNTAYLQMNSLKPEDTAVYYCVRLSSGYYDFDYWGQGTLVTVSS
B30: variant 6-57 (Fc fusion)
VHH: EVQLVESGGGLVQPGGSLRLSCAASGLTFDDHSMGWFRQAPGKEREFVAAVPLSGNTYYADSVKGRFTISADNSKNTAYLQMNSLKPEDTAVYYCASFSGGPADFDYWGQGTLVTVSS
B31: variant 6-28 (Fc fusion)
VHH: EVQLVESGGGLVQPGGSLRLSCAASGDTYGSYWMGWFRQAPGKEREFVATITSDDRTNYADSVKGRFTISADNSKNTAYLQMNSLKPEDTAVYYCARVTSSLSGMDVWGQGTLVTVSS
B32: variant 6-52 (Fc fusion)
VHH: EVQLVESGGGLVQPGGSLRLSCAASGDTYGSYWMGWFRQAPGKEREVVAAITSGGSTVYADSVKGRFTISADNSKNTAYLQMNSLKPEDTAVYYCARVDSRFDYWGQGTLVTVSS
B33: variant 6-24 (Fc fusion)
VHH: EVQLVESGGGLVQPGGSLRLSCAASGFTLDYYAMGWFRQAPGKEREFVAAINWSGDNTHYADSVKGRFTISADNSKNTAYLQMNSLKPEDTAVYYCARAPFYCTTTKCQDNYYYMDVWGQGTLVTVSS

The assay has as its target T1, Acro SARS-CoV-2 (COVID-19) S1 protein (SARS-CoV-2, UniProt P0DTC2 16-685).
T1 construct: also called SARS-CoV-2 S1
As to the kind of experiment: SPR.
B1: the affinity, expressed as Kd, was 58.2 nM.

For B2, binding was characterised by a dissociation constant (Kd) of 76.4 nM.

Molecule B3 had a Kd of 26.6 nM.

Turning to B4, the Kd was 21.3 nM.

Take B5: binding was put at a Kd of 32.1 nM.

In turn, B6 returned a dissociation constant (Kd) of 55.6 nM.

The molecule B7 had a dissociation constant (Kd) of 18.1 nM.

Consider B8, for which binding was put at a Kd of 17.9 nM.

B9 registered a Kd of 17.5 nM.

Molecule B10 gave a Kd of 21.8 nM.

In the case of B11, the Kd was found to be 11.3 nM.

In turn, B12 showed a Kd of 44.3 nM.

In turn, B13 displayed a Kd of 890 nM.

Take B14: the equilibrium dissociation constant (Kd) worked out at 27.2 nM.

B15 came in with a dissociation constant (Kd) of 248 nM.

In turn, B16 yielded a dissociation constant Kd of 51.5 nM.

B17 returned a Kd of 144 nM.

Molecule B18 had a dissociation constant (Kd) of 293 nM.

Consider B19, for which the Kd was 151 nM.

B20 showed a dissociation constant Kd of 39.6 nM.

Regarding B21, the dissociation constant Kd came to 22.5 nM.

On to B22, for which the Kd was 102 nM.

Turning to B23, the Kd worked out at 43.9 nM.

Molecule B24 yielded a Kd of 8.2 nM.

B25: the Kd stood at 35.2 nM.

Molecule B26 showed a dissociation constant Kd of 251 nM.

With B27, the Kd came out at 10.1 nM.

B28 came in with a Kd of 140 nM.

In the case of B29, binding was put at a Kd of 59.3 nM.

With B30, the Kd turned out to be 205 nM.

As to B31, binding was characterised by a dissociation constant (Kd) of 54.1 nM.

B32 gave a Kd of 31.2 nM.

B33 came in with a Kd of 29.9 nM.
